Among the data in PMC12990809 are binding signal (z-score (mean of top ten 7-mers)) values, retold here.

Holding throughout (test): pulldown
The target in data set [1] is T1, BATDEDRAFT_13807 (Batrachochytrium dendrobatidis) (UniProt F4NYD0).
T1 sequence: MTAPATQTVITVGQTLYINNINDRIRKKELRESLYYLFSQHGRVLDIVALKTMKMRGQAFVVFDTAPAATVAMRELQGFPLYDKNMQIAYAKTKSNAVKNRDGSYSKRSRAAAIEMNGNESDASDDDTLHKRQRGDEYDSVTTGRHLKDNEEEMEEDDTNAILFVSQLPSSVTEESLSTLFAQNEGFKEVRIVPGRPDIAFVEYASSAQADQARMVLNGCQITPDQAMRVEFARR
The conditions noted are these: 20 nM protein, 1.5 uM RNA pool; 20 mM HEPES pH 7.8, 70 mM KCl, 10 mM NaCl, 10% glycerol, 2 mM DTT, 0.1 ug/uL BSA; 30 min, 4 C.

The target in data set [2] is T2, NCU00707 (Neurospora crassa) (UniProt Q7SET9).
T2 sequence: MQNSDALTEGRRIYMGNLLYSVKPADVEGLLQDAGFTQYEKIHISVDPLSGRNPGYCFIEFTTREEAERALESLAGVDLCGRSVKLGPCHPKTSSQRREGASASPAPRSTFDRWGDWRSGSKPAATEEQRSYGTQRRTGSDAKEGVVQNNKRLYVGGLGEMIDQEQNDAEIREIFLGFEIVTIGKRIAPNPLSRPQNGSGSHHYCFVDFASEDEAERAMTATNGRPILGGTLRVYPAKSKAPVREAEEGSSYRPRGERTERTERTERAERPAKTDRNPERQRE
The conditions noted are these: 20 nM protein, 1.5 uM RNA pool; 20 mM HEPES pH 7.8, 70 mM KCl, 10 mM NaCl, 10% glycerol, 2 mM DTT, 0.1 ug/uL BSA; 30 min, 4 C.

The target in data set [3] is T3, NCU00556 (Neurospora crassa) (UniProt Q7SF93).
T3 sequence: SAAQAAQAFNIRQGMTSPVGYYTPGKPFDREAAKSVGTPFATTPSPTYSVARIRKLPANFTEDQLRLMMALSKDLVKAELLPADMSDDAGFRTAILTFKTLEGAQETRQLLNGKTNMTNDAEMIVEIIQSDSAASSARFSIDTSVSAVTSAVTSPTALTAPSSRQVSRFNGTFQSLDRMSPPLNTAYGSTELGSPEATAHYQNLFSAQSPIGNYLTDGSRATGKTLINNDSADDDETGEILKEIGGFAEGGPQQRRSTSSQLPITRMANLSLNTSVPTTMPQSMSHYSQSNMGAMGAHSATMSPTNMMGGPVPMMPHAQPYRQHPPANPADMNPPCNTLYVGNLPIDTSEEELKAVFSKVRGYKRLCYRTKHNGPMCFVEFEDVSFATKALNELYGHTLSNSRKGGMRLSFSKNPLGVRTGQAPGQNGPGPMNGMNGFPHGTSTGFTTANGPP
The note with it: 20 nM protein, 1.5 uM RNA pool; 20 mM HEPES pH 7.8, 70 mM KCl, 10 mM NaCl, 10% glycerol, 2 mM DTT, 0.1 ug/uL BSA; 30 min, 4 C.

The target in data set [4] is T4, LmjF.24.1570 (Leishmania major) (UniProt Q4QAH4).
T4 sequence: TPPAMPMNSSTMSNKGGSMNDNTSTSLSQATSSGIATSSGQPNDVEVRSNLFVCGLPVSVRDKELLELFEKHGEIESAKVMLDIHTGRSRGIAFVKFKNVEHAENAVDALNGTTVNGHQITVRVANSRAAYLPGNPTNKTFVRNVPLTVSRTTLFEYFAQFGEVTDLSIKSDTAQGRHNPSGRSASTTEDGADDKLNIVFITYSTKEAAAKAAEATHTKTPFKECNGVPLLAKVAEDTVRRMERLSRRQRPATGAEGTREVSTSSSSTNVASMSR
The conditions noted are these: 20 nM protein, 1.5 uM RNA pool; 20 mM HEPES pH 7.8, 70 mM KCl, 10 mM NaCl, 10% glycerol, 2 mM DTT, 0.1 ug/uL BSA; 30 min, 4 C.

In another data set the target is DDX53 (Homo sapiens) (UniProt Q86TM3). The conditions noted are these: 20 nM protein, 1.5 uM RNA pool; 20 mM HEPES pH 7.8, 70 mM KCl, 10 mM NaCl, 10% glycerol, 2 mM DTT, 0.1 ug/uL BSA; 30 min, 4 C.
DDX53 (Homo sapiens), sequence (Q86TM3 whole entry): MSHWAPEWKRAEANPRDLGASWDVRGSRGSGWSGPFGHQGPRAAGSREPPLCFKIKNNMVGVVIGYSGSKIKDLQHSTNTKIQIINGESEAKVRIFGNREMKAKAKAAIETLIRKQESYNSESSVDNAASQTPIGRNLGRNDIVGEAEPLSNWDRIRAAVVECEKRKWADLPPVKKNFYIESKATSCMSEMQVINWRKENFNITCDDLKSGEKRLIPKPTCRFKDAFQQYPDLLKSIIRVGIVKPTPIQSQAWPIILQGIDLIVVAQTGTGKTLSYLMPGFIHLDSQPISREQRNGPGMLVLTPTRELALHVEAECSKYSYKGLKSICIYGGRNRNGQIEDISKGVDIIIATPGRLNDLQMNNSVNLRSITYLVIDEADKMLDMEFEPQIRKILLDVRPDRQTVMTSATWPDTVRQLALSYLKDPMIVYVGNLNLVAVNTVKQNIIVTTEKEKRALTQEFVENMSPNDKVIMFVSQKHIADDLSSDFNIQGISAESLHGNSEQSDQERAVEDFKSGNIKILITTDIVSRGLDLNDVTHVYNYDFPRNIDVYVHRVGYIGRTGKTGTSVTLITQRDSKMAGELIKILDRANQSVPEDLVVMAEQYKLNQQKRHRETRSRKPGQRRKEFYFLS
Data set [5] addresses T5, LmjF.30.1110 (Leishmania major) (UniProt Q4Q7J2).
T5 sequence: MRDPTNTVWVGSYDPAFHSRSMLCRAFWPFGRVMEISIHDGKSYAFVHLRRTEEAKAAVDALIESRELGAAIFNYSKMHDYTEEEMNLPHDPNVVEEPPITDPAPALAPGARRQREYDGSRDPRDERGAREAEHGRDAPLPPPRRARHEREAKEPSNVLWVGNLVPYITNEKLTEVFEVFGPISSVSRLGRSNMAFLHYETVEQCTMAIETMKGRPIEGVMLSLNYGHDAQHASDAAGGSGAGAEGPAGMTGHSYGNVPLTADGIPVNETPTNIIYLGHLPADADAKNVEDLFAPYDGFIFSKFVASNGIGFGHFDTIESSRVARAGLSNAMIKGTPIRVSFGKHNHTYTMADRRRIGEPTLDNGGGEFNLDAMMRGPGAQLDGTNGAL
The note with it: 20 nM protein, 1.5 uM RNA pool; 20 mM HEPES pH 7.8, 70 mM KCl, 10 mM NaCl, 10% glycerol, 2 mM DTT, 0.1 ug/uL BSA; 30 min, 4 C.

The target of data set [6] is T6, Tb927.7.320 T9S (Trypanosoma brucei) (UniProt Q57U22).
T6 sequence: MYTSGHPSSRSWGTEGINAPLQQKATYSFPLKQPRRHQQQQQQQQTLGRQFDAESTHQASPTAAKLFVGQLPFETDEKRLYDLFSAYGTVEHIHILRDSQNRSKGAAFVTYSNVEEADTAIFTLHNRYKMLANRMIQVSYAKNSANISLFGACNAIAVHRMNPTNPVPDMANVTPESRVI
The conditions noted are these: 20 nM protein, 1.5 uM RNA pool; 20 mM HEPES pH 7.8, 70 mM KCl, 10 mM NaCl, 10% glycerol, 2 mM DTT, 0.1 ug/uL BSA; 30 min, 4 C.

The next data set concerns the target T7, KHDRBS3 (Homo sapiens) (UniProt O75525).
T7 sequence: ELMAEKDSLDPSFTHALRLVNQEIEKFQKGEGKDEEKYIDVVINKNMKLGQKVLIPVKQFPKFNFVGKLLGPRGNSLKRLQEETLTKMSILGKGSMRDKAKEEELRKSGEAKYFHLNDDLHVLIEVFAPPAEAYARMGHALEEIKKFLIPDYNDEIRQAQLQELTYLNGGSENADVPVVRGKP
The conditions noted are these: 20 nM protein, 1.5 uM RNA pool; 20 mM HEPES pH 7.8, 70 mM KCl, 10 mM NaCl, 10% glycerol, 2 mM DTT, 0.1 ug/uL BSA; 30 min, 4 C (protocol of this paper; not …); cited from earlier work.

Data set [7] addresses T8, Tb927.3.3960 (Trypanosoma brucei) (UniProt Q57WD2).
T8 sequence: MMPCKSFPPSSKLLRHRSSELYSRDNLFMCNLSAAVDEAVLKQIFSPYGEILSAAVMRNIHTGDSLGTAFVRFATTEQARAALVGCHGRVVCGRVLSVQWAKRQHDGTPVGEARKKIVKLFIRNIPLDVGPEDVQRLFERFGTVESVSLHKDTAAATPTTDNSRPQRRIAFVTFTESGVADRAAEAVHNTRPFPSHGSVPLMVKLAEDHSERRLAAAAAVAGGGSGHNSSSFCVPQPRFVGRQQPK
The conditions noted are these: 20 nM protein, 1.5 uM RNA pool; 20 mM HEPES pH 7.8, 70 mM KCl, 10 mM NaCl, 10% glycerol, 2 mM DTT, 0.1 ug/uL BSA; 30 min, 4 C.

AUNGCAC [RNAcompete motif RNCMPT00739] displayed a binding signal (z-score (mean of top ten 7-mers)) in data set [1] of 7.82.
Substance UUAUGA [RNAcompete motif RNCMPT00768] had a binding signal (z-score (mean of top ten 7-mers)) in data set [2] of 7.83.
The substance UUGCAU [RNAcompete motif RNCMPT00754] returned a binding signal (z-score (mean of top ten 7-mers)) in data set [3] of 14.3.
The substance UAUACU [RNAcompete motif RNCMPT00761] gave a binding signal (z-score (mean of top ten 7-mers)) in data set [4] of 22.5.
AGAAUAA [RNAcompete motif RNCMPT00743] displayed a binding signal (z-score (mean of top ten 7-mers)) with DDX53 (Homo sapiens) of 6.26.
AUGAUG [RNAcompete motif RNCMPT00763]: in [5], the binding signal (z-score (mean of top ten 7-mers)) is 10.7.
Substance UUUGCUU [RNAcompete motif RNCMPT00751] had a binding signal (z-score (mean of top ten 7-mers)) in data set [6] of 12.5.
Turning to GAUAAAC [RNAcompete motif RNCMPT00034], in the data set with KHDRBS3 (Homo sapiens), the binding signal (z-score (mean of top ten 7-mers)) was 9.52.
As for CAUUGU [RNAcompete motif RNCMPT00735], the binding signal (z-score (mean of top ten 7-mers)) in data set [7] came to 23.
